Measurements published in patent US20230381183A1, “USE OF FOLIC ACID AND FOLATE MODIFICATION IN INDUCING B-CELL IMMUNE TOLERANCE AND TARGETING mIgM-POSITIVELY-EXPRESSED B-CELL LYMPHOMA” (FUDAN UNIVERSITY, priority 2020, published 2023).

Experiments:
[1] = test system: OVA-specific antibodies; experiment: Serum OVA-specific antibodies by ELISA after three weekly injections; assay type: in vivo, BALB/c female mice; conditions: 10 μg/mouse tail vein, once a week, three times; one week after last administration
From the text: (§1) The role of folate modification in mediating humoral immunosuppression and in reducing Anti-Drug Antibodies (ADA) of biomacromolecular drugs was investragated by using ovalbumin (OVA) as a model protein. OVA has strong immunogenicity and can induce the body to produce an immune response. Repeated stimulation of mice by OVA can cause the mice to produce lots of specific antibodies. The BALB/c female mice (5 weeks old) were randomly divided into FA-OVA (folate-OVA complex. Example 1) group, OVA group and physiological saline control group, with 6 mice in each group. FA-OVA, OVA and physiological saline were administered to mice via tail vein injection at a dose of 10 μg/mouse, once a week, three times in total.
One week after the last administration, the serum of the mice was collected and was measured by ELISA for the expression of OVA-specific antibodies in the serum. The results are shown in FIG. 12, wherein FIGS. 12a, 12b, 12c and 12d show the results of OVA-specific IgE, IgG, IgG1 and IgG2a, respectively.

[2] = test system: splenic B lymphocytes; experiment: Splenic B lymphocyte proliferation (CD86) and differentiation (GL-7) after three weekly injections; assay type: in vivo, BALB/c female mice; conditions: 10 μg/mouse tail vein, once a week, three times; one week after last administration
From the text: as §1
One week after the last administration, the spleen lymphocyte suspension was collected and subjected to flow cytometry for analysis of proliferation and differentiation of splenic B lymphocytes. CD86 was used as a marker for cell proliferation, and GL-7 was used as germinal center B-cell surface marker. FIGS. 11a and 11b provide the CD86 flow sorting graphs and statistical analysis results of mouse spleen lymphocytes, respectively. FIGS. 11c and 11d provide the GL7 flow sorting graphs and statistical analysis results of mouse spleen lymphocytes, respectively.

[3] = test system: anaphylactic shock induced by OVA (allergen); experiment: Prevention of anaphylactic shock: pretreatment, then OVA challenge; assay type: in vivo; conditions: pretreatment 10 μg OVA/mouse iv weekly x3, challenge 10 μg OVA
Experimental: The BALB/c female mice (5 weeks old) were randomly divided into FA-OVA group, OVA group and physiological saline group, with 10 mice in each group. FA-OVA or OVA or physiological saline of an equal volume was administered to the mice via tail vein injection at a dose of 10 μg OVA/mouse, once a week for a total of three times. One week after the last administration, each mouse was injected with 10 μg OVA (allergen) via tail vein. Changes in body temperature of the mice within 2 hours after OVA stimulation were recorded (FIG. 18). In the meanwhile, the serum was collected from the mice, and was measured by ELISA for the expression of OVA-specific antibodies in the serum (FIG. 19). […] Therefore, folate modification can effectively prevent anaphylactic shock induced by allergens.

[4] = test system: anaphylactic shock in OVA-sensitized mice; experiment: Treatment of anaphylactic shock: OVA-sensitized mice treated, then OVA challenge; assay type: in vivo, BALB/c female mice; conditions: 4 μg/mouse iv every two days x3, challenge 25 μg OVA
Experimental: The BALB/c female mice (5 weeks old) were subcutaneously injected with 10 μg OVA for sensitization, once a week, three times in total. One week after the last sensitization, the OVA-sensitized mice were injected with FA-OVA, OVA and physiological saline via tail vein at a dose of 4 μg/mouse, once every two days for three times in total. After the last administration, the mice were injected with 25 μg OVA (allergen) via tail vein. Changes in body temperature of the mice within 2 hours after the injection were recorded (FIG. 20). In the meanwhile, the serum was collected from the mice and was measured by ELISA for the level of the OVA-specific antibodies in the serum (FIG. 21). The mice without OVA sensitization but stimulated by tail vein injection of OVA served as the Naïve control group.

[5] = Blood routine analysis one week after last administration; assay type: in vivo, BALB/c female mice; conditions: 10 μg/mouse tail vein weekly x3
From the text: as §1
In addition, the whole blood of the mice was collected one week after the last administration for blood routine analysis.

[6] = Water solubility (observation on preparation); assay type: physicochemical

Row | Molecule | expression of OVA-specific antibodies in the serum (IgE, IgG, IgG1, IgG2a) [1] | proliferation of B-cell (CD86) and differentiation into germinal center B-cell (GL-7) [2] | body temperature within 2 hours after OVA stimulation [3] | serum OVA-specific antibodies (IgE, IgG1, IgG2a) after challenge [3] | BASO [5] | HCT [5] | HGB [5] | LYMPH [5] | MCH [5] | MCHC [5] | MCV [5] | MONO [5] | MPV [5] | NEYT [5] | NRBC [5] | P-LCR [5] | PCT [5] | PDW [5] | PLT [5] | RBC [5] | further results
1 | OVA: ovalbumin, model protein and allergen [reference compound] | a large amount of OVA-specific antibodies | proliferated significantly and differentiated into the germinal center B-cell | dropped significantly | a large number of OVA-specific antibodies |  |  |  |  |  |  |  |  |  |  |  |  |  |  |  |  | 
2 | FA-OVA: folate-modified ovalbumin complex, EDC coupling of folic acid to OVA | significantly inhibited | significantly inhibited | did not change significantly | substantially comparable to the physiological saline group |  |  |  |  |  |  |  |  |  |  |  |  |  |  |  |  | effect of treatment on anaphylaxis (body temperature curve) [4]: desensitizing effect; expressions of OVA-specific antibodies IgE, IgG1 and IgC2a in serum [4]: comparable to those in the physiological saline group and significantly decreased compared with those in the OVA group; time for body temperature to return to normal after OVA challenge [4]: ≤ 2 h
3 | FA-OVA: folate-modified ovalbumin complex, EDC coupling of folic acid to OVA (conjugate, UniProt P01012 2-386, looked up, folate via EDC coupling) Ovalbumin: GSIGAASMEFCFDVFKELKVHHANENIFYCPIAIMSALAMVYLGAKDSTRTQINKVVRFDKLPGFGDSIEAQCGTSVNVHSSLRDILNQITKPNDVYSFSLASRLYAEERYPILPEYLQCVKELYRGGLEPINFQTAADQARELINSWVESQTNGIIRNVLQPSSVDSQTAMVLVNAIVFKGLWEKAFKDEDTQAMPFRVTEQESKPVQMMYQIGLFRVASMASEKMKILELPFASGTMSMLVLLPDEVSGLEQLESIINFEKLTEWTSSNVMEERKIKVYLPRMKMEEKYNLTSVLMAMGITDVFSSSANLSGISSAESLKISQAVHAAHAEINEAGREVVGSAEAGVDAASVSEEFRADHPFLFCIKHIATNAVLFFGRCVSP |  |  |  |  | 0 10*9/L | 49.83 ± 4.53% | 161.50 ± 9.26 g/L | 2.78 ± 0.19 10*9/L | 16.28 ± 0.59 pg | 325.00 ± 12.35 g/L | 50.075 ± 1.37 fL | 0.035 ± 0.0058 10*9/L | 7.05 ± 0.058 fL | 0.94 ± 0.23 10*9/L | 0.015 ± 0.013 10*9/L | 4.35 ± 1.01% | 0.41 ± 0.042% | 5.58 ± 0.096 fL | 586.50 ± 59.29 10*9/L | 9.96 ± 0.89 10*12/L | RDW-CV [5]: 14.78 ± 0.50%; WBC [5]: 3.77 ± 0.42 10*9/L; water solubility [6]: easily soluble in water
4 | OVA: ovalbumin, model protein and allergen (protein, UniProt P01012 2-386, looked up) Ovalbumin: GSIGAASMEFCFDVFKELKVHHANENIFYCPIAIMSALAMVYLGAKDSTRTQINKVVRFDKLPGFGDSIEAQCGTSVNVHSSLRDILNQITKPNDVYSFSLASRLYAEERYPILPEYLQCVKELYRGGLEPINFQTAADQARELINSWVESQTNGIIRNVLQPSSVDSQTAMVLVNAIVFKGLWEKAFKDEDTQAMPFRVTEQESKPVQMMYQIGLFRVASMASEKMKILELPFASGTMSMLVLLPDEVSGLEQLESIINFEKLTEWTSSNVMEERKIKVYLPRMKMEEKYNLTSVLMAMGITDVFSSSANLSGISSAESLKISQAVHAAHAEINEAGREVVGSAEAGVDAASVSEEFRADHPFLFCIKHIATNAVLFFGRCVSP |  |  |  |  | 0 10*9/L | 52.15 ± 5.97% | 169.25 ± 13.45 g/L | 2.58 ± 0.29 10*9/L | 16.08 ± 0.67 pg | 325.75 ± 16.50 g/L | 49.43 ± 0.43 fL | 0.035 ± 0.017 10*9/L | 7.10 ± 0.14 fL | 0.80 ± 0.21 10*9/L | 0.025 ± 0.013 10*9/L | 5.15 ± 1.48% | 0.45 ± 0.016% | 5.53 ± 0.15 fL | 635.00 ± 36.59 10*9/L | 10.55 ± 1.13 10*12/L | RDW-CV [5]: 14.63 ± 0.33%; WBC [5]: 3.43 ± 0.51 10*9/L; anaphylactic shock / death after OVA challenge ([3]; 10 mice per group): two mice died
